Data: a protein production outcome set (Wang et al. 2014)

Assay: label from the status in PepcDB records
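Also: failed if final PepcDB status was selected cloned or expressed and not failed if soluble or beyond.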

Row | Sequence | protein production
1 | MAISKDLYPSQEDLLYEEELLRNQFSLKLWWRYLIAKAESPFKKRFIIYERALKALPGSYKLWYAYLRERLDIVRNLPVTHPQYDSLNNTFERGLVTMHKMPRIWVMYLQTLTVQQLITRTRRTFDRALCALPVTQHDRIWEPYLVFVSQNGIPIETSLRVYRRYLMYDPSHIEEFIEFLVKSERWQESAERLASVLNDDKFYSIKGKTKHKLWLELCELLVHHANVISGLNVDAIIRGGIRKFTDEVGMLWTSLADYYIRKNLLEKARDIYEEGMMKVVTVRDFSVIFDVYSRFEESTVAKKMEMMSSSDEEDENEENGVEDDEEDVRLNFNLSVKELQRKILNGFWLNDDNDVDLRLARLEELMNRRPALANSVLLRQNPHNVEQWHRRVKIFEGNAAKQILTYTEAVRTVDPMKAVGKPHTLWVAFAKLYENHKDLVNTRVIFDKAVQVNYKTVDHLASVWCEWAEMELRHKNFKGALELMRRATAVPTVEVRRRVAADGNEPVQMKLHRSLRLWSFYVDLEESLGTLESTRAVYEKILDLRIATPQIIMNYAFLLEENKYFEDAFKVYERGVKIFKYPHVKDIWVTYLTKFVKRYGKTKLERARELFEHAVSMAPSDAVRTLYLQYAKLEEDYGLAKRAMKVYEEATKKVPEGQKLEMYEIYISRAAEIFGVPRTREIYEQAIESGLPHKDVKIMCIKFAELERSLGEIDRARALYKYSSQFADPRSDPEFWNKWHEFEVQHGNEDTYREMLRIKRSVSASYSQTHFILPENMMQKDKLLDVEDAKGELKRAGLPEDEMAALERQLLSTTTPTEPAKDGGRRVGFVSAGVISQSGENEGKPVTGNGEDIELPDESDDESDGDDHVEISQKEVPAAVFGGLARKRDEDGEEAGEDGAAQKLGALERIKRQKLNQ | failed
2 | MNMQKCDSTQEQQLTFEPRGHQLTNINVWTPDSQWLAYDVRPNSSTFSGLTIERVNCITGDIEVIYRSQHGAHVGVVTVSPDMPARYVFIHGPEHPDNHWHYDFHHRRGVIVTEPDRELAVTLDAMDITPPFTPGALRGGSHVHVFSPDGSRLSFTYNDHVLHEQDPALDCRNVAVALPLHGVNPPKQHPREYDGSHFCVLVTRTTPTPLAGSDQISRAYEEGWIGSQGYLKMDGTRQRWALAFIGDTLSAQGEKIPEIFIADLPEHERDYARAGEEPLEGTQTTMPAPPAGVRQRRLTFTAERHFPGLATSPRHWLRTSPDGSAIACLMKDDEGVVQLWLVSPNGGEPRQLTFTEGGIQSAFSWHPQGHSLVFVCDNSVMQCDSTTGQLWRLTARSAIAPMADAVVFSPDGTKVAFMREIDGLAQIFTVKVD | failed
3 | ALFHKKLTEGVLMRDPKFLWCAQCSFGFIYEREQLEATCPQCHQTFCVRCKRQWEEQHRGRSCEDFQNWKRMN | not failed
4 | MTVRVCKMDGEVMPVVVVQNATVLDLKKAIQRYVQLKQEREGGVQHISWSYVWRTYHLTSAGEKLTEDRKKLRDYGIRNRDEVSFIKKLGQK | not failed
5 | MLFFNVASLKYKHHESIQMIIDRIDHLVLTVSDISTTIRFYEEVLGFSAVTFKQNRKALIFGAQKINLHQQEMEFEPKASRPTPGSADLCFITSTPINDVVSEILQAGISIVEGPVERTGATGEIMSIYIRDPDGNLIEISQYVLEHHHHHH | not failed
6 | KGKSFIWIKRQLDPKVAEEVKALGLENFVFEKELKRHYPMGNLFAHVIGFTDIDGKGQEGLELSLEDSLYGEDGAEVVLRDRQGNIVDSLDSPRNKAPQNGKDIILSLD | failed
7 | MMNNMDSIINYIYEGDYFIVTSHISPDGDNIGSTLSMYYTLKNLGKNVYYVLDDEAPLNLRFLVEGVKIYKSNEFNMKNYSLIALDCGDKMRICVSDEIKNNASKLICIDHHASNDSYGDLNYVDIDASSTCELVYNLLVRFQQIKDINIINEDIATCLYTGLVTDTGNFSYSNVHASSFEMAKNLLVLGAQKNTIIQNIYQSN | failed
8 | MTIYHFVGIKGSGMSALAQILHDKGFQVQGSDVDKYFFTQKALEEKQIPIMTFSADNIQEGLTIIAGNAFPDTHEEIERALELGLSVIRYHKFLGQLIDGYTSIAITGSHGKTSTTGLLSHVVGAIRPTSYLIGDGTGSGTKDAEYFALEACEYQRHFLAYKPTYAIMTNIDWDHPDYFKSVDDVFNAFETLGKQVKKAVFALGDDAELRKLTLDIPIIYFGFGEENEFQAKNVIKETTGTKFDVYHREEFLSSFEIPAYGDHNVLNALSVIALCDYEGLPVEDVKNELKTFEGVKRRFSITEKGNQVLVDDYAHHPSEIRATVNAARQKYPDKKVVAVFQPHTFTRTRTFLQGFADSLNLADEVYLCDIFGSAREKTGNLTIADLAHKTKGNHIIKEEHTEELLKYPEAVILFMGAGDVQKFQAAYEKVLDHEFLTEADLKKSAIN | failed
9 | MNSELTFKQGLKDTMPTVFGYIGIGIAFGMIGHSEGFSVWVILLLSLIVYAGSAQFIMVSMLATHSPIMSIVLSVFLVNSRIILMSMTTASYFKNESLLKNILLGTLLTDESFALGMNKQNYTEGKLNFSWFNASNLLAYLVWALASAIGALLGNLLANPEKLGLGFAVIAMFIGLLYLQLISDKTLGLMLQLVMVGITLVLFYFGLIFLPSNLLVLFVTLIACALGVGVKRVFF | failed
10 | MAQVINEMDVPSHSFVFHGTGERYFLICVVNVLLTIITLGIYLPWALMKCKRYLYANMEVNGQRFSYGITGGNVFFSCLVFVFFYFAILMTVSADMPLIGCVLTLSLLVLLIFMAAKGLRYQALMTSLNGVRFSFNCSMKGVWWVTFFLPILMAIGMGTVFFISTKMLHANSSSSVIVSVVLMAIVGIVSIGIFNGTLYSLVMSFLWSNTSFGIHRFKVKLDTAYCIKYAILAFLALLPFLAVAGYIIFDQILNAYDSSVYANDDIENLQQFMEMQRKMIIAQLIYYFGIAVSTSYLTVSLRNHFMSNLSLNDGRIRFRSTLTYHGMLYRMCALVVISGITGGLAYPLLKIWMIDWQAKNTYLLGDLDDLPLINKEEQPDKGFLASISRGIMPSLPFL | failed
11 | MNRIEHYHDWLRDAHAMEKQAESMLESMASRIDNYPELRARIEQHLSETKNQIVQLETILDRNDISRSVIKDSMSKMAALGQSIGGIFPSDEIVKGSISGYVFEQFEIACYTSLLAAAKNAGDTASIPTIEAILNEEKHMADWLIQHIPQTTEKFLIRSETDGVEAKK | not failed
12 | MRNLKDRVLNSLKGNKKDIKISVVVPTYNTELEGLKNLMASIDKQTMNPDEYELVFVDDGSTTDTYERLQEFAETRPNMTVKQIENSGWGSRPRNIATKMAKGEYILYLDHDDTVFPETFERVYNFGKENNLDVVSGKEVRTNGWSWGWKQFSENNPHAEEMGIECLLPMTPHKFYKREFLLENDITFDDGARVLWEDVYFNSKAFIHGAKVGILADYPTYYWIATGANNSSSFGRDPHEKWNQINKLFNFFKDNIKEQRDLDFMLTHWYRSRVLGILGQWLLKNNNERIDIEFNYAKKLAEELIPAYISENLDKNNQVKDYLLRQGDLDSLKKLAQIDAGITALSYVEDAYFKEDKLFFKTSTKMTYEDKEDFFIEKTADRMERILPEEIKSKLPKEFFDYSDDLAEFTYEPSIKGRNSRATWKIDGSTSNVEVVNKKANLYKIEGEMSFSVQINDYILDAADKKQPWDIATRFTGLGYTSHRALTIGKILIKTALINNKTMIVYKNASGLISLDVGSSVRSIVEDSGVKREQILIDKTSGKVTIPLNEIHVFGESLIEGNAELKPVGISDADPINVKAKLIGEANKARVEVLLGDEKLSGEYHLVTNIQGKKDKQQIKITL | failed
13 | MPEAGLAQLVPLTAVALLAGVVDAIAGGGGLLTLPALLWTGLPPHLALGTNKGQSVFGSFAALVRFSRAGMVDGRRARLTFPLGLAGSLAGAGLVLLVPPATLRPVVLALLAFAALFVGLRRGPPARPDGGPRPAAPVVAGAIALAIGAYDGFFGPGTGTFLIVAFVALLGDGLAHASAGAKVVNFASNLAAVTLFSIKGVVVWRIAVPMAVAQLAGGWIGAHLAVRRGDALVRRTAVLVTLALAVKLAWDMRS | failed
14 | AIAEHKEVVLLLLLFLKSGQGEPLDDYVNTQGPSLFSVTKKQLGAGSREECAAKCEEDKEFTCRAFQYHSKEQQCVIMAENRKSSIIIRMRDAVLFEK | not failed
15 | MSHEVDELFDAEMLQQAKTLSAFMSVNSERLPEAGVIIESIGAHNYEDKLSYRIENTEELLLMQTEGAPDASAFEFIPGFSVKRVKDELWHAFGLENATGQRILMLQEDGFRSELRMDLTVDTVIPILLILPFMLWLGWWTINRNFSSFNRLAGELRRKRADDYTNFVEDNDREEVALVKRSLNHYINRIEQTFLREKRFSADAAHELRTPLASLKAQIQSRLGSATSEQQNELQPLLDSTERLVKLVESLLQLSKAELPPEQLKQVNVASVLRQVLADQYVAAESKGLSYHAQLPTVFQQTSDESYLYLLFANALDNAIKYAVPGSHIGIEVTENQIFVCNRVAADHVIDIDRITERFYRGKQLDVEGSGLGLSIVRNLAEQLGVQINFRHIDDEFCFIVTFDTDQ | failed
16 | MAEISHPPMEQLQDLEYCIDSNPPWPETVLLAFQNYILMLGTSAFIPALLVPAMGGSDGDRARVIQTLLFVAGIKTLLQALFGTRLPAVVGGSLAYVVPIAYIINDSSLQKISNDHERFIHTMRAIQGALIVASSIQIILGYSQVWGLFSRFFSPLGMAPVVGLVGLGMFQRGFPQLGNCIEIGLPMLLLVIGLTQYLKHVRPFKDVPIFERFPILICVTIVWIYAVILTASGAYRGKPSLTQHSCRTDKANLISTAPWFKFPYPLQWGPPTFSVGHSFAMMSAVLVSMVESTGAYIAASRLAIATPPPAYVLSRGIGWQGIGVLLDGLFGTGTGSTVLVENVGLLGLTRVGSRRVVQVSAGFMIVFSTLGKFGAVFASIPVPIYAALHCILFGLVAAVGLSFLQFTNMNSMRNLMITGLSLFLGISIPQFFAQYWDARHYGLVHTNAGWFNAFLNTLFMSPATVGLIIAVFMDNTMEVERSKKDRGMPWWVKFRTFRGDNRNEEFYTLPFNLNRFFPPT | failed
17 | MQNTIIQKAVNKDLNSILEITKDALNAMKTMNFHQWDENYPNEIVFQEDIQAQELYVFKENDEILGFICINEKFKPEFYKQVIFNKNYDDKAFYLHRLAVKQNAKGKGVAQKLLNFCENFALENHKASLRADTHSKNFPMNSLFKKLDFNFCGNFDIPNYQDPFLAYEKILNQKAF | not failed
18 | LEIKQLLNIYRDLQLGHFCAFYQPQKHIDSGGVVAFEALARRVIGKGLYEMPDRFFPILEKYHLIPTLTEVMVRDILTFLMTEDAVLQDITIGVNIPGKMLTDGSFYRLLLSVAEEKQAQHALHRLSVEITEHDLIADFDAAKHEIYKLKSLGIRCALDDFGTGYSGYEYLCEIPFDVVKIDGRYIQSLGKAESSTVILQSMISSIKSLSMQVIAEWVDSDQQYQILQEMGCDLVQGYLVSPAISPQQVLNYLHNKLSP | failed
19 | QSVHDIEKTLIRIGVVQWQMRAMNDLEDLLDQAEFFISSLANYKADFALFPEFFNAPLMGLQNDQNSVEAIRFLASFTEEIKNRFSQMAVTYNINIIAGSMPLIEDGKLYNVAYLLQRDGEINAQYKIHITPHEQKDWVIDGGDNVQVFETDAGKVGILICYDSEFPELGRMLAEQGAQIIFVPFWTDTKNGYQRVRICSQSRAIENECYVAIGGSVGNLPRVDNVDIQYAQSAVFSPSDIYFPHDATLTEASANTEMIIFADVDLTKLKQLNTEGSVTNLRHRRLDLYGAFTTPKE | failed
20 | MKFLTVSDDMNFLRQVNTLVAGKGDMDSVIIGEGDAKGLGSKVLYRAKKGTPFDAVSEGILKIAGNYDYIAIGSTEVGREIAGYLSFKTGFYTATEIFSLEFNGQKAHTKRFFYGGKTVIEEESDARILTVAPGVIEAKDLGTTPEIRDLEIGQSRIKITKFVSKAGGSVRLEDAKVIVSVGRGIGSKENIAKIEPLAKALNGEIAGSRPVCMDYGWLSEDRQVGLSGKKVSPKVYIALGISGQIQHIAGMRNSKTVIAINKDKNAPIFQECDYGIVGDLFTVVPKILEQLKQ | failed
21 | KSAVTAQSILEKADEIRFPQDSFQVNVAIRTAAPDHAEDLYRYQVLSKGNENSIVMITEPASERGQAILMKGRDLWVFMPSVSQPIRLSLSQRLTGQVANGDIARANFTGDYHPQLLRNESIDDEDYYVLELTGIDRSVTYQKVLLWVNQSNFRPYKAEFYSVSGRLLKTSRYENFDNILGEMRPTRIIMEDALKSGEVSVLDYSDMKLRDLPDKIFTKDYLKRLE | not failed
